Consider 4 molecules from patent publication EP4541814A1.

Assay [1] concerns the target trastuzumab-GFP (prepared in-house). Briefly: SPR (Biacore 8K+), fusion protein amine-coupled to CM5, Fc block 2 uM, then trastuzumab-GFP 1 uM. On the technique in general: In SPR one partner is held on a chip, and binding of the other changes the refractive index at the surface.
In assay [2] the target is epidermal growth factor receptor (EGFR), Example 4A analyte (UniProt P00533). Briefly: SPR (Biacore 8K+), fusion protein amine-coupled to CM5, EGFR 200 nM, report point late binding.
Assay [3] concerns the target EGFR (SinoBiological, 10001-H08H) (UniProt P00533). Briefly: SPR (Biacore 8K+), fusion protein amine-coupled to CM5, EGFR 200 nM.

B1: Candidate 4B-5: vh60 fusion protein (SEQ ID NO:172) (VHH)
VHH: QVQLQESGGGLVQPGGSLRLSCAASGRTSINPYMAWFRQAPGKQREFVAAISSGGVYTYYTDSVKGRFTISRDNAKTTVYLQMNSLKPEDTAVYYCAADFRRGGNWNVDPFRYDYQYWGQGTQVTVSS
In assay [1], B1 registered a trastuzumab-eGFP response in analyte binding late (1 µM, RU) of 4300 RU.

B2: Candidate 4B-6: vh113 fusion protein (SEQ ID NO:173) (VHH)
VHH: QVQLQQSGGGSVQAGGSLRLSCTISGRTSINPYMAWFRQRPGKEREFVAAISSGGVYTYYADSVKGRFTISRDNAKNTVYLQMNSLKPEDTAVYYCAADFRRGGNWNVDPFRYDYDYWGQGTQVTVSS
B2 displayed a trastuzumab-eGFP response in analyte binding late (1 µM, RU) in assay [1] of 3910 RU.

B3: Candidate 4A-5: vh167 fusion protein (SEQ ID NO:169) (VHH)
VHH: QVQLQQSGGGSVQAGGSLRLSCTISGRTFSSYAMGWFRQRPGKEREFVAAINWSSGSTYYADSVKGRFTISRDNAKNTVYLQMNSLKPEDTAVYYCAAGYQINSGNYNFKDYEYDYWGQGTQVTVSS
As for B3, in assay [2], the Binding capacity EGFR (200 nM) (RU) turned out to be 2350 RU.

B4: Candidate 4B-4: vh167 fusion protein (SEQ ID NO:175) (VHH)
VHH: QVQLQQSGGGSVQAGGSLRLSCTISGRTFSSYAMGWFRQRPGKEREFVAAINWSSGSTYYADSVKGRFTISRDNAKNTVYLQMNSLKPEDTAVYYCAAGYQINSGNYNFKDYEYDYWGQGTQVTVSS
Molecule B4 yielded an EGFR response in analyte binding late (200 nM, RU) in assay [3] of 1900 RU.
